Laboratory results as given in patent publication US20060233785A1, “Immunointeractive molecules and uses thereof” (priority 2001, published 2006).

B1: rHev b 6: recombinant Hev b 6 (prohevein) expressed in E. coli from pPROEX-HTa with 6-His tag (protein)
chain: EQCGRQAGGKLCPNNLCCSQWGWCGSTDEYCSPDHNCQSNCKDSGEGVGGGSASNVLATYHLYNSQDHGWDLNAASAYCSTWDANKPYSWRSKYGWTAFCGPVGAHGQSSCGKCLSVTNTGTGAKTTVRIVDQCSNGGLDLDVNVFRQLDTDGKGYERGHITVNYQFVDCGDSFNPLFSVMKSSVIN
modifications: left off: small tags and cut ends
notes: recombinant Hev b 6 (prohevein) expressed in E. coli from pPROEX-HTa with 6-His tag
B2: sulphonated rHev b 6: purified rHev b 6 sulphonated in sulphonation buffer to improve solubility (protein)
chain: EQCGRQAGGKLCPNNLCCSQWGWCGSTDEYCSPDHNCQSNCKDSGEGVGGGSASNVLATYHLYNSQDHGWDLNAASAYCSTWDANKPYSWRSKYGWTAFCGPVGAHGQSSCGKCLSVTNTGTGAKTTVRIVDQCSNGGLDLDVNVFRQLDTDGKGYERGHITVNYQFVDCGDSFNPLFSVMKSSVIN
modifications: left off: small tags and cut ends
B3: mutant rHev b 6: rHev b 6 with cysteine to alanine substitution at amino acid 3 of the mature protein (protein)
chain: EQAGRQAGGKLCPNNLCCSQWGWCGSTDEYCSPDHNCQSNCKDSGEGVGGGSASNVLATYHLYNSQDHGWDLNAASAYCSTWDANKPYSWRSKYGWTAFCGPVGAHGQSSCGKCLSVTNTGTGAKTTVRIVDQCSNGGLDLDVNVFRQLDTDGKGYERGHITVNYQFVDCGDSFNPLFSVMKSSVIN
modifications: left off: small tags and cut ends
notes: rHev b 6 with cysteine to alanine substitution at amino acid 3 of the mature protein

Tests used:
IgE binding to rHev b 6 = assay: Inhibition ELISA: IgE binding to rHev b 6; parameters: species or system human; details: for inhibitor concentration required to give 30% inhibition of IgE binding: estimated; for maximum inhibition of IgE binding to rHev b 6: third subject (FIG. 8D), 125 μg/ml inhibitor
Description: (§1) Inhibition ELISA were carried out to confirm the lack of IgE reactivity of mutant rHev b 6. Various concentrations of mutant rHev b 6 and rHev b 6, ranging from 0.0016 μg/ml to 125 μg/ml were preincubated with patient sera before the sera were used in ELISA to measure IgE binding to rHev b 6. Incubation of sera with KLH was used as a negative control. Values are presented as percent inhibition±standard deviation. (A) The Hev b 6-specific mAb 1A5.4 was incubated with KLH, mutant rHev b 6 and rHev b 6 and mAb binding to rHev b 6 detected. Sera from three latex-allergic, Hev b 6 sensitised subjects A7 (B), A6 (C) and A8 (D) were incubated with KLH, mutant rHev b 6 and rHev b 6 and IgE binding to rHev b 6 detected. The horizontal line indicates the level below which inhibition was considered to non-specific.
To confirm the lack of IgE reactivity of mutant rHev b 6, inhibition ELISA were performed. In these assays, IgE binding to rHev b 6 was inhibited by preincubation of sera from latex allergic, Hev b 6 reactive subjects with either rHev b 6 or mutant rHev b 6 over a range of concentrations. To determine the level of non-specific inhibition inherent in such an assay, an initial non-specific inhibition assay was performed. The serum of a latex-allergic, Hev b 5 positive subject was incubated with rHev b 6 and mutant rHev b 6 and then the ability of IgE from this serum to bind rHev b 5 in an ELISA was measured. When this assay was undertaken, binding of IgE to rHev b5 was inhibited at a maximum of 20% by rHev b 6 and mutant rHev b 6 (data not shown).

[1] = tested on: Hev b 6-specific mAb 1A5.4; assay: Inhibition ELISA: mAb 1A5.4 binding to rHev b 6; parameters: species or system mouse; details: FIG. 8A
Description: as §1
In order to confirm the ability of the mutant rHev b 6 to inhibit Ab binding, rHev b 6 and mutant rHev b 6 were used to inhibit binding of the Hev b 6-specific mAb 1A5.4 to rHev b 6 (FIG. 8A).

[2] = type: physicochemical
Text: Recombinant Hev b 6 (rHev b 6): The cDNA encoding Hev b 6 was cloned from latex RNA (Beezhold, unpublished). The deduced amino acid sequence of this clone is identical to that of the Hev b 6 clone pDHPROH 6 in Rozynek P et al., 1998, Clinical and Experimental Allergy 28:1418-1426 and differed at amino acid 126 (Thr versus Ala) from the deduced amino acid sequence of the Hev b 6 clone pDHPROH 1-2 (Genbank entry AJ003196.1). It differs at amino acids 109 (Pro versus Ser) and 161 (Leu versus Ile) from the deduced amino acid sequence of the Hev b 6 clone HEV1 (Genbank entry M36986.1), isolated by Broekaert W, Lee H, Kush A, Chua N-H, Raikhel N. Wound-induced accumulation of mRNA containing a hevein sequence in laticifers of rubber tree (Hevea brasiliensis). Proc Natl Acad Sci USA 1990; 87:7633-7637. The Hev b 6 cDNA was subcloned into the pPROEX-Hta vector (Invitrogen, CA, USA) by the polymerase chain reaction (PCR) following our standardised methods (Sutherland et al., 2002, supra). Primers HEVB6F (5′-[…]-3′) (SEQ ID NO:22) and HEVB6R (5′-[…]-3′) (SEQ ID NO:23) were used for the PCR. The plasmid construct was transformed into E. coli strain BL21-CodonPlus® (DE3)-RIL competent cells (Stratagene, CA, USA) by the heat shock procedure (Sambruk et al., 1989, supra). […]

Molecule | inhibitor concentration required to give 30% inhibition of IgE binding (IgE binding to rHev b 6) | inhibition of IgE binding to rHev b 6 (IgE binding to rHev b 6; higher inhibitor concentrations, FIGS. 8B, C and D) | maximum inhibition of IgE binding to rHev b 6 (IgE binding to rHev b 6) | inhibition of mAb 1A5.4 binding to rHev b 6 [1] | solubility [2] | fold more inhibitor required to inhibit IgE binding as effectively as rHev b 6 (IgE binding to rHev b 6; at 30% inhibition) | inhibition of IgE binding to rHev b 6 (IgE binding to rHev b 6; two subjects (FIGS. 8B and C), 0.0016 to 125 μg/ml)
B1 | 0.01 µg/mL | 100% | 100% | comparable inhibition | insoluble |  | 
B2 |  |  |  |  | increased markedly |  | 
B3 | 125 µg/mL |  | 32% | comparable inhibition |  | 12,500 fold | failed to inhibit above the level determined for non-specific inhibition
